B1: HAdV-B3 fiber knob (domain or fragment)
chain: NSIALKNNTLWTGPKPEANCIIEYGKQNPDSKLTLILVKNGGIVNGYVTLMGASDYVNTLFKNKNVSINVELYFDATGHILPDSSSLKTDLELKYKQTADFSARGFMPSTTAYPFVLPNAGTHNENYIFGQCYYKASDGALFPLEVTVMLNKRLPDSRTSYVMTFLWSLNAGLAPETTQATLITSPFTFSYIREDD
B2: human CXADR Fc chimera protein (CAR) (Fc fusion)
chain: LSITTPEEMIEKAKGETAYLPCKFTLSPEDQGPLDIEWLISPADNQKVDQVIILYSGDKIYDDYYPDLKGRVHFTSNDLKSGDASINVTNLQLSDIGTYQCKVKKAPGVANKKIHLVVLVKPSGARCYVDGSEEIGSDFKIKCEPKEGSLPLQYEWQKLSDSQKMPTSWLAEMTSSVISVKNASSEYSGTYSCTVRNRVGSDQCLLRLNVVPPSNKAG
B3: HAdV-C5 fiber knob protein (domain or fragment)
chain: KNNDKLTLWTTPAPSPNCRLNAEKDAKLTLVLTKCGSQILATVSVLAVKGSLAPISGTVQSAHLIIRFDENGVLLNNSFLDPEYWNFRNGDLTEGTAYTNAVGFMPNLSAYPKSHGKTAKSNIVSQVYLNGDKTKPVTLTITLNGTQETGDTTPSAYSMSFSWDWSGHNYINEIFATSSYTFSYIAQE

How the values were obtained:
Experiment in all cases: SPR
[1] = target: T1, human CD46 protein (His tag) (human, UniProt P15529)
T1 chain: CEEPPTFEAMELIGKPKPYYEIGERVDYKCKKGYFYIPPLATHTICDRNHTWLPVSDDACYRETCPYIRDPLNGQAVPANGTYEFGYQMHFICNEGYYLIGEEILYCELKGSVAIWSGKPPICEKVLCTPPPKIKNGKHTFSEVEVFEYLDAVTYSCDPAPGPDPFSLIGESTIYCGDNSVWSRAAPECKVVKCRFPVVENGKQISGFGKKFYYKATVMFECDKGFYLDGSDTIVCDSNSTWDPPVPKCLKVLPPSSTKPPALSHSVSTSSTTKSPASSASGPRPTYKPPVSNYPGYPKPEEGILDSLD

[2] = target: T2, Human desmoglein-2 Fc chimera protein (DSG2) (human, UniProt Q14126)
T2 chain: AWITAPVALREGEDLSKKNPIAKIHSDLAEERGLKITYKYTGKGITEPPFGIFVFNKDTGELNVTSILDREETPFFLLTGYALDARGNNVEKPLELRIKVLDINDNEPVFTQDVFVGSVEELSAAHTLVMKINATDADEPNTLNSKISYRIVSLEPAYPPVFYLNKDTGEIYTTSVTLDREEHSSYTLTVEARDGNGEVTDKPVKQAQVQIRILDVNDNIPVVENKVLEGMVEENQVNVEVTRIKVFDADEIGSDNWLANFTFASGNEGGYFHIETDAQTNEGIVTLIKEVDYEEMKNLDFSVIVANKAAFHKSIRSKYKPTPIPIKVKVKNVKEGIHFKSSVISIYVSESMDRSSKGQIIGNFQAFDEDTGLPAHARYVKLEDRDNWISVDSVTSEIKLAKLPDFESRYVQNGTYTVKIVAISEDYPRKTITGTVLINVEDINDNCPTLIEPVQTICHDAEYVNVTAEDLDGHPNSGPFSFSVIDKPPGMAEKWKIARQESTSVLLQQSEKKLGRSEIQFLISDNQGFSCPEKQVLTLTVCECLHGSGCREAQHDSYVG

[3] = target: T1, human CD46 protein (His tag)
[4] = target: HAdV-D10 fiber knob protein (human adenovirus type 10 (HAdV-D10))
[5] = target: B2

## B1
[1]
  koff: 0.025 s⁻¹
[2]
  Kd: 66.9 µM
[3]
  Kd: 0.16 µM

## B2
[4]
  koff: 0.0019 s⁻¹

## B3
[5]
  koff: 0.0019 s⁻¹
